Our source for the pKa values is PMC12383448.

Data set [1] deals with His12 (UniProt position 197, CHQQIHRNAPI). The experiment in a line: NMR.
The target in data set [2] is His8 (UniProt position 193, ACLSCHQQIHR). The experiment in a line: NMR.
The mark [3] stands for this setting: 10 °C, not stated for the titration sample (the pH 6.0 zinc-binding NMR samples had no other added buffers or salts), not stated (no added buffer reported for the NMR samples), folded, Zn2+-bound (0.9 mM ZL with equimolar ZnCl2).

As for “ZC4H2 zinc finger peptide ZL (ZC4H2-ZL) (Homo sapiens)”, the pKa in data set [1] (setting [3]) is 5.5 ± 0.1; in data set [1] (unfolded, zinc-free ZL peptide), “near 6.0”; in data set [2] (setting [3]) it was 6.9 ± 0.1; in data set [2] (unfolded, zinc-free ZL peptide) it was “near 6.0”.

The pKa is the pH at which an ionisable group is half protonated.
